In the supplement of paper PMC10126150:
± gives the standard deviation of the averaged measurements.

Tested on: ATP
Assay: switch fluorescence ratio, 500 uM ATP over buffer (Cy3 cluster intensity, sum of 5 cycles each) (fold (ratio)); higher = stronger signal-on switching upon ATP binding; sequences stand for … in TCGTCGGCAGCGTCAGATGTGTATAAGAGACAGTTTTTTTTTTTTTTTTTTTTTTTTT…TC
Conditions: aptamer strand: ATP DNA aptamer (quencher-CACCTGGGGGAGTATTGCGGAGGAAGG + anchor), 100 nM annealed; ATP concentration: 500 uM
How it was run: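 Cy3-labelled switching-strand clusters on a modified Illumina MiSeq flow-cell were annealed to 100 nM quencher-labelled ATP aptamer and imaged first in selection buffer, then after 15 min with 500 uM ATP at 22 °C. NaOH stripping and re-annealing separated each of five buffer/ATP cycles, and clusters outside 100-1000 RFU were excluded. The fluorescence ratio sums target-cycle Cy3 intensity over buffer-cycle Cy3 intensity per cluster and averages it per switch-domain sequence.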
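Note: ATP exposure 15 min at 22 °C before imaging.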

With CGTGGAGGGA the switch fluorescence ratio was 1.01 ± 0.027.

For CGTGGATACT, the switch fluorescence ratio was 1.23 ± 0.057.

In the case of CGTGGATAGC, the switch fluorescence ratio is reported as 1.02 ± 0.055.

In the case of CGTGGATGAC, the switch fluorescence ratio is reported as 0.9939 ± 0.0096.

CGTGGATTCC gave a switch fluorescence ratio of 1.03 ± 0.011.

In the case of CGTGGATTTA, the switch fluorescence ratio is reported as 0.983 ± 0.011.

CGTGGCAGGA gave a switch fluorescence ratio of 1.03 ± 0.021.

In the case of CGTGGGGGAT, the switch fluorescence ratio is reported as 1.01 ± 0.029.

CGTGGGGTGG was tested, and the switch fluorescence ratio was 1.02 ± 0.045.

CGTGGGTTCG showed a switch fluorescence ratio of 0.961 ± 0.025.

In the case of CGTGGTGTGT, the switch fluorescence ratio is reported as 0.992 ± 0.0011.

With CGTGGTGTTG the switch fluorescence ratio was 0.991 ± 0.015.

Work on CGTGGTTAAG yielded a switch fluorescence ratio of 1.01 ± 0.038.

In the case of CGTGGTTCAG, the switch fluorescence ratio is reported as 0.996 ± 0.014.

CGTGTCCGGT showed a switch fluorescence ratio of 1.01 ± 0.043.

CGTGTGATGC showed a switch fluorescence ratio of 1.05 ± 0.015.

Work on CGTGTGATGT yielded a switch fluorescence ratio of 0.973 ± 0.03.

CGTGTGGCGT was tested, and the switch fluorescence ratio was 1.05 ± 0.016.

CGTGTGGCTG was tested, and the switch fluorescence ratio was 0.992 ± 0.034.

CGTGTGGGGA gave a switch fluorescence ratio of 1.02 ± 0.045.

CGTGTTAATT gave a switch fluorescence ratio of 0.982 ± 0.034.

CGTGTTGTTG was tested, and the switch fluorescence ratio was 1.02 ± 0.022.

CGTTAAACGT showed a switch fluorescence ratio of 1.01 ± 0.036.

In the case of CGTTAATTTT, the switch fluorescence ratio is reported as 0.983 ± 0.026.

With CGTTACTACG the switch fluorescence ratio was 1.06 ± 0.028.

Sequence CGTTACTGGT has a switch fluorescence ratio of 0.973 ± 0.016.

For CGTTAGCGGG, the switch fluorescence ratio was 1 ± 0.018.

CGTTAGGCGC showed a switch fluorescence ratio of 0.985 ± 0.013.

CGTTAGGGCA gave a switch fluorescence ratio of 0.979 ± 0.02.

CGTTAGTATT gave a switch fluorescence ratio of 0.9936 ± 0.00056.

Sequence CGTTAGTGTA has a switch fluorescence ratio of 0.99 ± 0.023.

CGTTATATAA was tested, and the switch fluorescence ratio was 1.04 ± 0.014.

CGTTATCGTG showed a switch fluorescence ratio of 0.9826 ± 0.0061.

Work on CGTTATGGGC yielded a switch fluorescence ratio of 0.979 ± 0.022.

With CGTTATTCAC the switch fluorescence ratio was 1.03 ± 0.036.

In the case of CGTTATTGAG, the switch fluorescence ratio is reported as 0.95 ± 0.016.

With CGTTATTGGC the switch fluorescence ratio was 1.02 ± 0.034.

Sequence CGTTATTTAT has a switch fluorescence ratio of 0.9985 ± 0.0089.

CGTTCAACGA was tested, and the switch fluorescence ratio was 1 ± 0.029.

CGTTCACCGG gave a switch fluorescence ratio of 0.959 ± 0.049.

In the case of CGTTCACCTG, the switch fluorescence ratio is reported as 0.996 ± 0.038.

For CGTTCCAGGC, the switch fluorescence ratio was 1.083 ± 0.0064.

For CGTTCCCCCA, the switch fluorescence ratio was 1.355 ± 0.013.

Work on CGTTCGCCGG yielded a switch fluorescence ratio of 0.99801 ± 8.6e-05.

In the case of CGTTCTAGTG, the switch fluorescence ratio is reported as 0.974 ± 0.011.

With CGTTCTGGGG the switch fluorescence ratio was 0.984 ± 0.05.

Work on CGTTCTGGTC yielded a switch fluorescence ratio of 0.999 ± 0.046.

CGTTGAATAA was tested, and the switch fluorescence ratio was 1.017 ± 0.0089.

For CGTTGATGCT, the switch fluorescence ratio was 1.01 ± 0.02.

CGTTGCACCT gave a switch fluorescence ratio of 0.952 ± 0.051.

CGTTGCAGGG gave a switch fluorescence ratio of 0.984 ± 0.024.

Sequence CGTTGCTATG has a switch fluorescence ratio of 1.01 ± 0.028.

For CGTTGCTTTG, the switch fluorescence ratio was 0.9869 ± 0.0016.

Work on CGTTGGAAGG yielded a switch fluorescence ratio of 0.985 ± 0.021.

In the case of CGTTGGCGTG, the switch fluorescence ratio is reported as 0.947 ± 0.036.

For CGTTGGGAAG, the switch fluorescence ratio was 0.9779 ± 0.0087.

Sequence CGTTGGGTGG has a switch fluorescence ratio of 1.02 ± 0.076.

For CGTTGTAAAT, the switch fluorescence ratio was 0.9823 ± 0.0071.

In the case of CGTTGTATAG, the switch fluorescence ratio is reported as 0.971 ± 0.016.

Work on CGTTGTGGAA yielded a switch fluorescence ratio of 1.006 ± 0.0056.

With CGTTGTTCGA the switch fluorescence ratio was 1.02 ± 0.012.

With CGTTGTTGAA the switch fluorescence ratio was 0.968 ± 0.036.

For CGTTGTTGGT, the switch fluorescence ratio was 1.015 ± 0.009.

For CGTTTAACAC, the switch fluorescence ratio was 0.997 ± 0.02.

Work on CGTTTAGGCA yielded a switch fluorescence ratio of 1.02 ± 0.024.

CGTTTATTGA gave a switch fluorescence ratio of 1.004 ± 0.0086.

With CGTTTCAAGG the switch fluorescence ratio was 0.975 ± 0.016.

CGTTTCGTTG gave a switch fluorescence ratio of 0.9635 ± 0.0019.

CGTTTGACCT showed a switch fluorescence ratio of 1.03 ± 0.026.

For CGTTTGAGTG, the switch fluorescence ratio was 1.02 ± 0.023.

Sequence CGTTTGGGCA has a switch fluorescence ratio of 1.01 ± 0.017.

With CGTTTGGGTC the switch fluorescence ratio was 1.01 ± 0.031.

For CGTTTGGGTG, the switch fluorescence ratio was 1.02 ± 0.055.

CGTTTGTATC showed a switch fluorescence ratio of 1.02 ± 0.022.

With CGTTTGTCGG the switch fluorescence ratio was 1.01 ± 0.059.

CGTTTGTCGT showed a switch fluorescence ratio of 1.04 ± 0.031.

CGTTTGTCTA showed a switch fluorescence ratio of 1.01 ± 0.051.

Sequence CGTTTGTTTT has a switch fluorescence ratio of 1 ± 0.041.

Sequence CGTTTTATTG has a switch fluorescence ratio of 0.99 ± 0.049.

CGTTTTGCAG gave a switch fluorescence ratio of 1.03 ± 0.032.

For CGTTTTGCAT, the switch fluorescence ratio was 1.09 ± 0.11.

With CGTTTTGTTA the switch fluorescence ratio was 0.977 ± 0.028.

For CGTTTTGTTG, the switch fluorescence ratio was 0.998 ± 0.014.

For CGTTTTTAAA, the switch fluorescence ratio was 1.02 ± 0.04.

In the case of CGTTTTTACA, the switch fluorescence ratio is reported as 1 ± 0.015.

Sequence CGTTTTTATT has a switch fluorescence ratio of 1.01 ± 0.015.

CGTTTTTCGT showed a switch fluorescence ratio of 0.9779 ± 0.0038.

CGTTTTTGGA gave a switch fluorescence ratio of 0.966 ± 0.018.

CGTTTTTGTT showed a switch fluorescence ratio of 1 ± 0.025.

CGTTTTTTCG showed a switch fluorescence ratio of 1 ± 0.075.

With CGTTTTTTCT the switch fluorescence ratio was 0.974 ± 0.015.

With CGTTTTTTTA the switch fluorescence ratio was 0.992 ± 0.018.

Work on CGTTTTTTTC yielded a switch fluorescence ratio of 1.007 ± 0.01.

With CTAAAAGAGG the switch fluorescence ratio was 0.997 ± 0.019.

CTAAAAGGGG gave a switch fluorescence ratio of 1.02 ± 0.021.

With CTAAAGTACT the switch fluorescence ratio was 1.11 ± 0.041.

CTAAATATTG showed a switch fluorescence ratio of 0.989 ± 0.015.

CTAACGCGCA gave a switch fluorescence ratio of 1.11 ± 0.0043.

Sequence CTAAGCCCGG has a switch fluorescence ratio of 1 ± 0.011.

CTAAGGGAAG showed a switch fluorescence ratio of 0.9781 ± 0.00035.
